Measured values from article PMC5739284.

Target: His6-sPfUIS3 (recombinant His-tagged soluble P. falciparum UIS3, wild type) (P. falciparum)
Assay: SPR

GST-His6-LC3B (recombinant) (from UniProt Q9GZQ8 1-120) (natural protein)
Kd: 244 nM
